The source of these data is patent US20210009671A1 (AstraZeneca / MedImmune, published 2021).

Assay [1] concerns the target Recombinant human NGF (Sigma) (human, UniProt P01138 122-241, limits assumed). The assay can be described thus: cell-based or functional assay.
Assay [2] concerns the target Recombinant mouse NGF (R&D Systems) (mouse, UniProt P01139 122-241). In words: cell-based or functional assay.

Chain of Recombinant human NGF (Sigma) (P01138 122-241 limits assumed): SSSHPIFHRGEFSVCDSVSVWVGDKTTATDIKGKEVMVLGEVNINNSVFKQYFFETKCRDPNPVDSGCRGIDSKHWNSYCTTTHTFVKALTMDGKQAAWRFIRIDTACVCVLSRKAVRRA
Chain of Recombinant mouse NGF (R&D Systems) (P01139 122-241 limits assumed): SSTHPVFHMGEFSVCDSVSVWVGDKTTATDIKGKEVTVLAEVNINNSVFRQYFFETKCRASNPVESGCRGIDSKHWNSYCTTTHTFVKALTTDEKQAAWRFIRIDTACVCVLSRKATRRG

B1: MEDI-578 IgG1 TM YTE (antibody, V domains shown)
VH: QVQLVQSGAEVKKPGSSVKVSCKASGGTFSTYGISWVRQAPGQGLEWMGGIIPIFDTGNSAQSFQGRVTITADESTSTAYMELSSLRSEDTAVYYCARSSRIYDLNPSLTAYYDMDVWGQGTMVTVSS
VL: QSVLTQPPSVSAAPGQKVTISCSGSSSNIGNNYVSWYQQLPGTAPKLLIYDNNKRPSGIPDRFSGSKSGTSATLGITGLQTGDEADYYCGTWDSSLSAWVFGGGTKLTVL
B1: the “IC50 (read off the curve), human NGF-induced TF-1 proliferation” value in assay [1] is approximately 0.7 nM. The “IC50 (read off the curve), murine NGF-induced TF-1 proliferation” value in assay [2] was approximately 0.3 nM.
